These results are taken from US20030140381, “Genes and regulatory DNA sequences associated with stress-related gene expression in plants and methods of using the same” (Pioneer Hi-Bred International, Inc., published 2003).

The target of series [1] is T1, ZmABI4 (maize ABI4, AP2-domain transcription factor) (Zea mays). The experiment in a line: EMSA. (In general: Mobility shift assays separate free from complexed probe on a gel.)
Series [2] has as its target T1, ZmABI4 (maize ABI4, AP2-domain …). The experiment in a line: EMSA; described as high affinity.

T1 sequence (chain, as listed by the source): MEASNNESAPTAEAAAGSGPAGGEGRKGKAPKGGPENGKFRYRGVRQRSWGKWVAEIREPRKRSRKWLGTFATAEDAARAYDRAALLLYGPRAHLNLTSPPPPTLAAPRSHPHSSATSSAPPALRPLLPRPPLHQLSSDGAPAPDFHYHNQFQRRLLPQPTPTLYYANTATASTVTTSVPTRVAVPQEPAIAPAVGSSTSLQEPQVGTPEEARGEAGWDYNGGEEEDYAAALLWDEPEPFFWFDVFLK

B1: ZmABI4 upstream element (-175 to -158) (dsDNA)
DNA 1: TTTGACCACCGCCCCTCT
DNA 2: AGAGGGGCGGTGGTCAAA
Regarding B1, the binding result in series [1] is on record as “binds”.

B2: Adh1 promoter element (-246 to -229) (dsDNA)
DNA 1: CGCCGCCACCGCTTGGCG
DNA 2: CGCCAAGCGGTGGCGGCG
As for B2, in series [2], the binding result was “binds”.
